Measurements as given in patent US20030220247A1.

Biological target: vitamin K-dependent gamma-glutamyl carboxylase
Experiment: inhibition constant of the propeptide toward the carboxylase; assay not described in the example

Ki: 0.43 nM
Substance: consensus propeptide sequence
